Columns and labels:
[1] = molecular target: T1, LILRB3 Protein, Human, Recombinant (ECD, His Tag), Sino Biological (human, UniProt O75022 24-443); assay: ELISA, coated protein
T1 construct: extracellular domain; Bought recombinant protein with a His tag; also called LILRB3蛋白

[2] = molecular target: T2, LILRB5/CD85c Protein, Human, Recombinant (ECD, His Tag), Sino Biological (human, UniProt O75023 24-458); assay: ELISA, coated protein
T2 construct: extracellular domain; Bought recombinant protein with a His tag; also called LILRB5蛋白

[3] = molecular target: T3, ILT4 Protein, Human, Recombinant (ECD, His Tag), Sino Biological (human, UniProt Q8N423 22-460); assay: ELISA, coated protein
T3 construct: extracellular domain; Bought recombinant protein with a His tag; also called LILRB2蛋白

[4] = molecular target: T4, LILRB1 Protein, Human, Recombinant (ECD, His Tag), Sino Biological (human, UniProt Q8NHL6 24-461); assay: ELISA, coated protein
T4 construct: extracellular domain; Bought recombinant protein with a His tag; also called LILRB1蛋白

[5] = molecular target: T5, Human LILRB4/CD85k/ILT3 Protein (ECD, His Tag), Sino Biological (human, UniProt Q8NHJ6 22-259); assay: ELISA, coated LILRB4 ECD-His, antibody titrated
T5 construct: extracellular domain; Bought recombinant protein with a His tag; also called 人LILRB4蛋白; LILRB4蛋白

[6] = molecular target: T6, LILRB4 on LILRB4阳性细胞THP-1 (human, UniProt Q8NHJ6 22-448); assay: flow cytometry on THP-1 cells
T6 construct: whole, on cells; also called LILRB4阳性肿瘤细胞THP-1; 人单核白血病细胞THP-1

Measured: binding result

T4 sequence (Q8NHL6 24-461): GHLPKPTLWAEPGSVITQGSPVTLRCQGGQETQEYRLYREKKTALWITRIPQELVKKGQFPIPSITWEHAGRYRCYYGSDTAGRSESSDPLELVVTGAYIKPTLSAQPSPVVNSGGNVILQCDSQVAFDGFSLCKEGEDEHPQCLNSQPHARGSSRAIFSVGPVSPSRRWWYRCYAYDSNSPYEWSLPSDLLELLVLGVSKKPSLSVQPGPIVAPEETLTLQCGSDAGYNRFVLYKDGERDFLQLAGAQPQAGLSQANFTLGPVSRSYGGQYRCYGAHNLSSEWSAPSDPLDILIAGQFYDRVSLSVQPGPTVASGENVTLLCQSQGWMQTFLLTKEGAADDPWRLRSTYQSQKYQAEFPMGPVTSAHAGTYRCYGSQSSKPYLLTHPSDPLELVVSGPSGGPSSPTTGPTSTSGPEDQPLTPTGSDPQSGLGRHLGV
T3 sequence (Q8N423 22-460): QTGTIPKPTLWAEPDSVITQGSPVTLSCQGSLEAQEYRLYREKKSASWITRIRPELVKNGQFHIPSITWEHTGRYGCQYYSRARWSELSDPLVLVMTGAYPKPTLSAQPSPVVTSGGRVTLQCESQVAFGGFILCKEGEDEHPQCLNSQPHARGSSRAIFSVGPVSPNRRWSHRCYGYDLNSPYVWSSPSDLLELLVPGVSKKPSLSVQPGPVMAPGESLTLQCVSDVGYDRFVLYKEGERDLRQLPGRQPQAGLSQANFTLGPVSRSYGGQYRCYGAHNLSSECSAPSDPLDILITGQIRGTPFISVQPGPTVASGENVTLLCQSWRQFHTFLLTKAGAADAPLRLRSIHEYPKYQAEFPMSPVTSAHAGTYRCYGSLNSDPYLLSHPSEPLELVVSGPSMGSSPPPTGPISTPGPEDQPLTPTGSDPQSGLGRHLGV
T1 sequence (O75022 24-443): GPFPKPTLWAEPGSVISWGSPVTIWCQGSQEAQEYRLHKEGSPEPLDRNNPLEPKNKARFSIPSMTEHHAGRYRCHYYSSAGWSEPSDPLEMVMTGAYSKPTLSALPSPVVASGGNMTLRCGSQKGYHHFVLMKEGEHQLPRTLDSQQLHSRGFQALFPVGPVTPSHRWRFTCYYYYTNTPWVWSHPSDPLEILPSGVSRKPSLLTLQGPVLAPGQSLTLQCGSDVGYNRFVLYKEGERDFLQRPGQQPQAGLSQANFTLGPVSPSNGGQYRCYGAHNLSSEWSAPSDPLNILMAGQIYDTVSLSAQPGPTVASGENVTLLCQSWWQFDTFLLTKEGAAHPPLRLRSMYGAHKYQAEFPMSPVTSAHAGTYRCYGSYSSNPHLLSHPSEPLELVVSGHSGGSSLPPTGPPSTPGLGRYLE
T2 sequence (O75023 24-458): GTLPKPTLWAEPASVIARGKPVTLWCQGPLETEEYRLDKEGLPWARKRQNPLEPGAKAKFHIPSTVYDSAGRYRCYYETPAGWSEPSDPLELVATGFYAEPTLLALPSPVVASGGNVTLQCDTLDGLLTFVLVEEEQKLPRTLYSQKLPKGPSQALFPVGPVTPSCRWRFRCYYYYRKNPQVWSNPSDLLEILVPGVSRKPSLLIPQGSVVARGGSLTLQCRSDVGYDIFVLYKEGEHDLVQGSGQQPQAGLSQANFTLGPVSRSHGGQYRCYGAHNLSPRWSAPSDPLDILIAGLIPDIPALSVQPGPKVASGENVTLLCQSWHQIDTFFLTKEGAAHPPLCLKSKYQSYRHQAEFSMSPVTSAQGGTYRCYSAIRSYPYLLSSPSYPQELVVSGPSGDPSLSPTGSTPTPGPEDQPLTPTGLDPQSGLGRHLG

B1: 全人源抗体2B9 (antibody, V domains shown)
VH: EVQLVQSGGGLIQPGGSLRLSCAASGFTVSSNYMSWVRQAPGKGLEWVSVIYSGGSTYYADSVKGRFTISRDNSKNTLYLQMNSLRAEDTAVYYCAKGATGGHDAFDIWGQGTTVTVSS
VL: not shown
notes: Fully human antibody from a phage library, made as a whole antibody in CHO-S cells; IgG4 heavy chain constant region, Ig kappa light chain
binds: [5] | [6]
no binding (tested: 10 μg/mL): [1] | [2] | [3] | [4]
